The target in experiment [1] is CD248 on transfected HEK293T cells. The experiment in a line: flow cytometry, HEK293T cells transfected with CD248 stained with IGFBP7-Ig; dashed = transfectant, solid = WT 293T; histograms overlie; the text tells this pair as not binding. (In general: A flow cytometer gives signals particle by particle.)
In experiment [2] the target is CD93 on cells in Example 20 (transfected HEK293T cells, FIG. 28A; CHO cells stably expressing CD93, FIG. 28B); species not stated. The experiment in a line: flow cytometry, CHO cells stably expressing CD93 stained with IGFBP7-Ig (dashed) or Control (solid) in the presence of MMRN2 (panel '+MMRN2', form of the MMRN2 not stated); bar chart of MFI beside it marked ns against 'None'.
Sequence of CD93 on cells in Example 20 (transfected HEK293T cells, FIG. 28A; CHO cells stably expressing CD93, FIG. 28B); species not stated (Q9NPY3 22-652): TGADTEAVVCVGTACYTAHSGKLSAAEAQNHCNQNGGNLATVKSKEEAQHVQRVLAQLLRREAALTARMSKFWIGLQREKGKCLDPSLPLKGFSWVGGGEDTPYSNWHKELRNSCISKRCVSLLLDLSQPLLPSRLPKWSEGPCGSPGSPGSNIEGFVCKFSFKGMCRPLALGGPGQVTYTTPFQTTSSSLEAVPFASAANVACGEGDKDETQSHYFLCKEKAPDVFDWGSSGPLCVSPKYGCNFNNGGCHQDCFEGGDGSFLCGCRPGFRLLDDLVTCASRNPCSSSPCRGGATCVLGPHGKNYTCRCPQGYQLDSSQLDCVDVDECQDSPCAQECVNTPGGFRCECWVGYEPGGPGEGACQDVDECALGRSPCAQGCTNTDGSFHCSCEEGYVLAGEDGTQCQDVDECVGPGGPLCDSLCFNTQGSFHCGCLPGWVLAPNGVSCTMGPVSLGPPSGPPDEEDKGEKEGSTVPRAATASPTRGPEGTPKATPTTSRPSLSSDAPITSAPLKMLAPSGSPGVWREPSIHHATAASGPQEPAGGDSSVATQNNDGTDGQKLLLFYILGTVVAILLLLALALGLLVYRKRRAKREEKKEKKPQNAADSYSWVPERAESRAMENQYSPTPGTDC

For experiment [3], the target named is CLEC14A on transfected HEK293T cells. The experiment in a line: flow cytometry, HEK293T cells transfected with CLEC14A stained with IGFBP7-Ig; dashed = transfectant, solid = WT 293T; histograms nearly overlie; the text tells this pair as not binding.
Sequence of CLEC14A on transfected HEK293T cells (Q86T13 22-490): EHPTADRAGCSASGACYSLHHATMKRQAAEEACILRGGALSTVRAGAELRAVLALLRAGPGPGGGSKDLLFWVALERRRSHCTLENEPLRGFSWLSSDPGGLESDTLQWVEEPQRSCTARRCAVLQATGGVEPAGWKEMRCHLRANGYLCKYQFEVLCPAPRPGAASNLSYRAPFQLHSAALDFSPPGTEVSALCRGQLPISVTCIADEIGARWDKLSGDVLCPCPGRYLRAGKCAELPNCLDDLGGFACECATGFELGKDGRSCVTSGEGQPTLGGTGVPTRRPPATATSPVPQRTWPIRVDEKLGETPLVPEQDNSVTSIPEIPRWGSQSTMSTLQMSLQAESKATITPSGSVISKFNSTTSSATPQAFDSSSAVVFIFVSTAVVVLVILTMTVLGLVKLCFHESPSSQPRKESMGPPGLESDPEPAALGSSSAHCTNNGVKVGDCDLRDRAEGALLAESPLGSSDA
Experiment [4] has as its target CD141. The experiment in a line: flow cytometry, HEK293T cells transfected with CD141 stained with IGFBP7-Ig; dashed = transfectant, solid = WT 293T; histograms overlie.
Sequence of CD141 (P07204 19-575): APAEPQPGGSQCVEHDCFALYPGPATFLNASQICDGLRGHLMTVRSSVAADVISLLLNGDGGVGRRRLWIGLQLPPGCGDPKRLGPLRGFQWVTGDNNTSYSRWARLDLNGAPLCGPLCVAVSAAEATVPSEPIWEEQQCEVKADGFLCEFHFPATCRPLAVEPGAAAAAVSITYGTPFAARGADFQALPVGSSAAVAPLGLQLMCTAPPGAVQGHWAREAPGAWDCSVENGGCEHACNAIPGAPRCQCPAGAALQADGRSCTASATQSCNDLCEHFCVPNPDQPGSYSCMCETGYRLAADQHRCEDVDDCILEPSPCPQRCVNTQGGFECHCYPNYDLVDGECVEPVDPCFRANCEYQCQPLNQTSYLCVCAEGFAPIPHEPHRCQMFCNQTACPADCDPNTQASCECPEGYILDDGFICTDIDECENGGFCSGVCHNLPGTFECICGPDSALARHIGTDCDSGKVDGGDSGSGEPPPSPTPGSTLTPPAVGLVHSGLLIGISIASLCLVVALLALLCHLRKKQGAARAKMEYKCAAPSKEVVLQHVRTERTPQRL
Experiment [5] deals with CD93 on cells in Example 20 (transfected HEK293T cells, FIG. 28A; CHO cells stably expressing CD93, FIG. 28B); species not stated. The experiment in a line: flow cytometry, HEK293T cells transfected with CD93 stained with IGFBP7-Ig; dashed = transfectant, solid = WT 293T.
Experiment [6] shares this target. The experiment in a line: flow cytometry, CHO cells stably expressing CD93 stained with IGFBP7-Ig (dashed) or Control (solid), no competitor.
Experiment [7] addresses CLEC14A on transfected HEK293T cells. The experiment in a line: flow cytometry, HEK293T cells transfected with CLEC14A stained with MMRN2-Ig; dashed = transfectant, solid = WT 293T.
Experiment [8] addresses CD141. The experiment in a line: flow cytometry, HEK293T cells transfected with CD141 stained with MMRN2-Ig; dashed = transfectant, solid = WT 293T; histograms nearly overlie.
For experiment [9], the target named is CD93 on cells in Example 20 (transfected HEK293T cells, FIG. 28A; CHO cells stably expressing CD93, FIG. 28B); species not stated. The experiment in a line: flow cytometry, CHO cells stably expressing CD93 stained with MMRN2-Ig (dashed) or Control (solid) in the presence of IGFBP7-His protein (panel '+IGFBP7'); bar chart of MFI beside it marked ns against 'None'.

For experiment [10] the target is unchanged. The experiment in a line: flow cytometry, CHO cells stably expressing CD93 stained with MMRN2-Ig (dashed) or Control (solid), no competitor.
For experiment [11] the target is unchanged. The experiment in a line: flow cytometry, HEK293T cells transfected with CD93 stained with MMRN2-Ig; dashed = transfectant, solid = WT 293T.
For experiment [12], the target named is CD248 on transfected HEK293T cells. The experiment in a line: flow cytometry, HEK293T cells transfected with CD248 stained with MMRN2-Ig; dashed = transfectant, solid = WT 293T.

Sequence of IGFBP7-Ig (Example 20, FIG. 28A and 28E; species not stated) (Fc fusion) (Q16270 27-282): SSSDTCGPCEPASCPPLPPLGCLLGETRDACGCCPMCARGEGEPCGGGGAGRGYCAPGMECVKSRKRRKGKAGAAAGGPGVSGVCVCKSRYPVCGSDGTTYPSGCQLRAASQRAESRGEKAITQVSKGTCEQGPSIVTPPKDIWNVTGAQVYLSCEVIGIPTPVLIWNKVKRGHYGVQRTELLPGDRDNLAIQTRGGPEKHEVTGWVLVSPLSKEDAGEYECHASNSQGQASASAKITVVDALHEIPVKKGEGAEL
Sequence of CD248 on transfected HEK293T cells (Q9HCU0 18-757): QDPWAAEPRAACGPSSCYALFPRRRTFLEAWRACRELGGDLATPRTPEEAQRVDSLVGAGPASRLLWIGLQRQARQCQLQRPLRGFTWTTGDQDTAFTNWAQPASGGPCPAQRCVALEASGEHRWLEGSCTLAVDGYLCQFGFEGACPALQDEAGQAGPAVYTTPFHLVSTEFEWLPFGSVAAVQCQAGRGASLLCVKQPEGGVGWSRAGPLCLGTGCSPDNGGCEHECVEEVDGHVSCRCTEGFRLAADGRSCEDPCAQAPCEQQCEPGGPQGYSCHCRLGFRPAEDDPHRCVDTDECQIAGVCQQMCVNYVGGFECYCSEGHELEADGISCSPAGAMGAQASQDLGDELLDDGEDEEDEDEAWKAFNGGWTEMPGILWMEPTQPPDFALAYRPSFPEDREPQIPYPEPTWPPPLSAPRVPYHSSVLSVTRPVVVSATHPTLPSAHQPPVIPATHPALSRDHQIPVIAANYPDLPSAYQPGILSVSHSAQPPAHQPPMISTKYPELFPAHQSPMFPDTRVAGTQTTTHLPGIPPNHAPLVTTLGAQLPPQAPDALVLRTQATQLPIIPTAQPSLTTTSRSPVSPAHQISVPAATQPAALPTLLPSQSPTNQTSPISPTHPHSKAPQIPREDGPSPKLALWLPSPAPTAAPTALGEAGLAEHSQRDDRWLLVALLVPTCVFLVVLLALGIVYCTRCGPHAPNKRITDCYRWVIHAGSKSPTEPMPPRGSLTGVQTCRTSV

Regarding “IGFBP7-Ig (Example 20, FIG. 28A and 28E; species not stated) (Fc fusion)”, the number printed over the positive gate of the histogram (percent of cells, unit not given) in experiment [1] was 3.07; in [2] it was 67.2; in experiment [3], 5.45; with CD141 [4], 2.42; in experiment [5], 28.2; in experiment [6], 67.
As for MMRN2-Ig (Fc fusion), the number printed over the positive gate of the histogram (percent of cells, unit not given) was found to be 25.6 in experiment [7]; 2.36 in the experiment with CD141 [8]; 93.8 in experiment [9]; 94.6 in [10]; 52.6 in [11]; 13.3 in experiment [12].

(Values after US20220235136A1, “METHODS AND COMPOSITIONS FOR TREATING A DISEASE OR DISORDER” (YALE UNIVERSITY, priority 2019, published 2022).)
